The target of this assay is gB-Ecto.H516P (HSV-1 glycoprotein B ectodomain with H516P and an appended foldon; postfusion) (HSV-1 KOS strain) (UniProt P06437). The assay can be described thus: cryo-EM structure.

Take “gB-Ecto.H516P (HSV-1 glycoprotein B ectodomain with H516P and an appended foldon; postfusion) (from UniProt P06437 31-728) (domain or fragment)”: the stoichiometry N was 3.

One may read the stoichiometry N as a count of units in the complex or per binding partner.

(Values after paper PMC12578645.)
